Measured values taken from patent US20140087995A1 (published 2014).
Numbered stars: 1 amine (or outer) side, 2 acyl side, 3 side chain; on linkers, the order of the positions; unused ones are H or OH. Bridge positions count the residues as written; N and C are the ends. Side chains are listed from the residue outwards. Ends that are not written are not given here. * marks the point of attachment. C20 diacid = O=C(O)CCCCCCCCCCCCCCCCCCC(=O)*; γGlu = O=C(O)[C@H](CCC(=O)[*:2])N[*:1]; AEEA = NCCOCCOCC(=O)O

T1: human calcitonin receptor (human, UniProt P30988 25-474)
T1 construct: whole, on cells; Assayed as cell membranes of BHK tk'ts 13 cells stably transfected with the human calcitonin receptor (Assay VII); also called hCTR; hCT
T1 sequence (looked up): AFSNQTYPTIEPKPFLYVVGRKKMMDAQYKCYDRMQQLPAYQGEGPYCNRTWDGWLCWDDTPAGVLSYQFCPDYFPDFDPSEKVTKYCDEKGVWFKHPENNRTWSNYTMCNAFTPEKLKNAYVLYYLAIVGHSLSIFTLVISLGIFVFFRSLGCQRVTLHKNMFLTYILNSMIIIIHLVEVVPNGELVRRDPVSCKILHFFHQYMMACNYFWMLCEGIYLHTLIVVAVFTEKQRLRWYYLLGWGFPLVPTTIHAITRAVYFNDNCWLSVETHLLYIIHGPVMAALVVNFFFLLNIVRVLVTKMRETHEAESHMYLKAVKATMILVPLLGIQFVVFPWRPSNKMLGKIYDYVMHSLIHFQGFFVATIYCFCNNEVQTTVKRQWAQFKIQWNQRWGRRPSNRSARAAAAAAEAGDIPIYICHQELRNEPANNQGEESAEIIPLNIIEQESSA


What was measured:
[1] = target: T1, human calcitonin receptor; assay: IC50 at hCTR divided by IC50 at hAmylin-R (SPA competition assays V and VII)
Method in brief: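 Competition binding by SPA with cell membranes (35 ng/μL) and SPA beads in 50 mM Hepes pH 7.4 with 1 mM CaCl2, 5 mM MgCl2, 0.1% OA and 0.02% Tween20. Incubated 120 min at 25 °C with shaking, then counted.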

[2] = target: T1, human calcitonin receptor; assay: SPA competition vs 125I-calcitonin, membranes of BHK cells with human calcitonin receptor (Assay VII)
Method in brief: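 BHK hCTR membranes 35 ng/μL + SPA beads 0.05 mg/well; buffer 50 mM Hepes pH 7.4, 1 mM CaCl2, 5 mM MgCl₂, 0.1% OA, 0.02% Tween20. 120 min, 25° C., shaking. Scintillation count; IC50 by one-site binding competition.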

| Ratio hCT/hAmylin binding [1] | IC50 [2] [nM] | Binder |
| --- | --- | --- |
| 68.1 | 19.8 | K([AEEA-γGlu-C20 diacid])CNTATCATQRLAHFLRHSSPNFGAIPSSTNVGHNTY-NH2 (disulfide 2-7; N-terminus assumed; SMILES CC[C@H](C)[C@H](NC(=O)[C@H](C)NC(=O)CNC(=O)[C@H](Cc1ccccc1)NC(=O)[C@H](CC(N)=O)NC(=O)[C@@H]1CCCN1C(=O)[C@H](CO)NC(=O)[C@H](CO)NC(=O)[C@H](Cc1c[nH]cn1)NC(=O)[C@H](CCCNC(=N)N)NC(=O)[C@H](CC(C)C)NC(=O)[C@H](Cc1ccccc1)NC(=O)[C@H](Cc1c[nH]cn1)NC(=O)[C@H](C)NC(=O)[C@H](CC(C)C)NC(=O)[C@H](CCCNC(=N)N)NC(=O)[C@H](CCC(N)=O)NC(=O)[C@@H](NC(=O)[C@H](C)NC(=O)[C@@H]1CSSC[C@H](NC(=O)[C@@H](N)CCCCNC(=O)COCCOCCNC(=O)CC[C@H](NC(=O)CCCCCCCCCCCCCCCCCCC(=O)O)C(=O)O)C(=O)N[C@@H](CC(N)=O)C(=O)N[C@@H]([C@@H](C)O)C(=O)N[C@@H](C)C(=O)N[C@@H]([C@@H](C)O)C(=O)N1)[C@@H](C)O)C(=O)N1CCC[C@H]1C(=O)N[C@@H](CO)C(=O)N[C@@H](CO)C(=O)N[C@H](C(=O)N[C@@H](CC(N)=O)C(=O)N[C@H](C(=O)NCC(=O)N[C@@H](Cc1c[nH]cn1)C(=O)N[C@@H](CC(N)=O)C(=O)N[C@H](C(=O)N[C@@H](Cc1ccc(O)cc1)C(N)=O)[C@@H](C)O)C(C)C)[C@@H](C)O, also called compound 80) |
| 66.7 | 8.11 | K([AEEA-γGlu-C20 diacid])CNTATCATQRLAHFLRHSSPNFGAIPSSTPVGSNTY-NH2 (disulfide 2-7; N-terminus assumed; SMILES CC[C@H](C)[C@H](NC(=O)[C@H](C)NC(=O)CNC(=O)[C@H](Cc1ccccc1)NC(=O)[C@H](CC(N)=O)NC(=O)[C@@H]1CCCN1C(=O)[C@H](CO)NC(=O)[C@H](CO)NC(=O)[C@H](Cc1c[nH]cn1)NC(=O)[C@H](CCCNC(=N)N)NC(=O)[C@H](CC(C)C)NC(=O)[C@H](Cc1ccccc1)NC(=O)[C@H](Cc1c[nH]cn1)NC(=O)[C@H](C)NC(=O)[C@H](CC(C)C)NC(=O)[C@H](CCCNC(=N)N)NC(=O)[C@H](CCC(N)=O)NC(=O)[C@@H](NC(=O)[C@H](C)NC(=O)[C@@H]1CSSC[C@H](NC(=O)[C@@H](N)CCCCNC(=O)COCCOCCNC(=O)CC[C@H](NC(=O)CCCCCCCCCCCCCCCCCCC(=O)O)C(=O)O)C(=O)N[C@@H](CC(N)=O)C(=O)N[C@@H]([C@@H](C)O)C(=O)N[C@@H](C)C(=O)N[C@@H]([C@@H](C)O)C(=O)N1)[C@@H](C)O)C(=O)N1CCC[C@H]1C(=O)N[C@@H](CO)C(=O)N[C@@H](CO)C(=O)N[C@H](C(=O)N1CCC[C@H]1C(=O)N[C@H](C(=O)NCC(=O)N[C@@H](CO)C(=O)N[C@@H](CC(N)=O)C(=O)N[C@H](C(=O)N[C@@H](Cc1ccc(O)cc1)C(N)=O)[C@@H](C)O)C(C)C)[C@@H](C)O, also called compound 61) |
| 51.7 | 5.38 | K([AEEA-γGlu-C20 diacid])CNTATCATQRLASFLRHSSPNFGAIPSSTPVGSNTY-NH2 (disulfide 2-7; N-terminus assumed; SMILES CC[C@H](C)[C@H](NC(=O)[C@H](C)NC(=O)CNC(=O)[C@H](Cc1ccccc1)NC(=O)[C@H](CC(N)=O)NC(=O)[C@@H]1CCCN1C(=O)[C@H](CO)NC(=O)[C@H](CO)NC(=O)[C@H](Cc1c[nH]cn1)NC(=O)[C@H](CCCNC(=N)N)NC(=O)[C@H](CC(C)C)NC(=O)[C@H](Cc1ccccc1)NC(=O)[C@H](CO)NC(=O)[C@H](C)NC(=O)[C@H](CC(C)C)NC(=O)[C@H](CCCNC(=N)N)NC(=O)[C@H](CCC(N)=O)NC(=O)[C@@H](NC(=O)[C@H](C)NC(=O)[C@@H]1CSSC[C@H](NC(=O)[C@@H](N)CCCCNC(=O)COCCOCCNC(=O)CC[C@H](NC(=O)CCCCCCCCCCCCCCCCCCC(=O)O)C(=O)O)C(=O)N[C@@H](CC(N)=O)C(=O)N[C@@H]([C@@H](C)O)C(=O)N[C@@H](C)C(=O)N[C@@H]([C@@H](C)O)C(=O)N1)[C@@H](C)O)C(=O)N1CCC[C@H]1C(=O)N[C@@H](CO)C(=O)N[C@@H](CO)C(=O)N[C@H](C(=O)N1CCC[C@H]1C(=O)N[C@H](C(=O)NCC(=O)N[C@@H](CO)C(=O)N[C@@H](CC(N)=O)C(=O)N[C@H](C(=O)N[C@@H](Cc1ccc(O)cc1)C(N)=O)[C@@H](C)O)C(C)C)[C@@H](C)O, also called compound 73) |

Further lines, the binder ahead of its results:

| Binder | Ratio hCT/hAmylin binding [1] | IC50 [2] [nM] |
| --- | --- | --- |
| K([AEEA-γGlu-C20 diacid])CNTATCATQRLAHFLRHSSPNFGAIPSSTNVGRNTY-NH2 (disulfide 2-7; N-terminus assumed; SMILES CC[C@H](C)[C@H](NC(=O)[C@H](C)NC(=O)CNC(=O)[C@H](Cc1ccccc1)NC(=O)[C@H](CC(N)=O)NC(=O)[C@@H]1CCCN1C(=O)[C@H](CO)NC(=O)[C@H](CO)NC(=O)[C@H](Cc1c[nH]cn1)NC(=O)[C@H](CCCNC(=N)N)NC(=O)[C@H](CC(C)C)NC(=O)[C@H](Cc1ccccc1)NC(=O)[C@H](Cc1c[nH]cn1)NC(=O)[C@H](C)NC(=O)[C@H](CC(C)C)NC(=O)[C@H](CCCNC(=N)N)NC(=O)[C@H](CCC(N)=O)NC(=O)[C@@H](NC(=O)[C@H](C)NC(=O)[C@@H]1CSSC[C@H](NC(=O)[C@@H](N)CCCCNC(=O)COCCOCCNC(=O)CC[C@H](NC(=O)CCCCCCCCCCCCCCCCCCC(=O)O)C(=O)O)C(=O)N[C@@H](CC(N)=O)C(=O)N[C@@H]([C@@H](C)O)C(=O)N[C@@H](C)C(=O)N[C@@H]([C@@H](C)O)C(=O)N1)[C@@H](C)O)C(=O)N1CCC[C@H]1C(=O)N[C@@H](CO)C(=O)N[C@@H](CO)C(=O)N[C@H](C(=O)N[C@@H](CC(N)=O)C(=O)N[C@H](C(=O)NCC(=O)N[C@@H](CCCNC(=N)N)C(=O)N[C@@H](CC(N)=O)C(=O)N[C@H](C(=O)N[C@@H](Cc1ccc(O)cc1)C(N)=O)[C@@H](C)O)C(C)C)[C@@H](C)O, also called compound 84) | 120 | 88.9 |
| K([AEEA-γGlu-C20 diacid])CNTATCATQRLAHFLRHSSPNFGAIPSSTNVGPNTY-NH2 (disulfide 2-7; N-terminus assumed; SMILES CC[C@H](C)[C@H](NC(=O)[C@H](C)NC(=O)CNC(=O)[C@H](Cc1ccccc1)NC(=O)[C@H](CC(N)=O)NC(=O)[C@@H]1CCCN1C(=O)[C@H](CO)NC(=O)[C@H](CO)NC(=O)[C@H](Cc1c[nH]cn1)NC(=O)[C@H](CCCNC(=N)N)NC(=O)[C@H](CC(C)C)NC(=O)[C@H](Cc1ccccc1)NC(=O)[C@H](Cc1c[nH]cn1)NC(=O)[C@H](C)NC(=O)[C@H](CC(C)C)NC(=O)[C@H](CCCNC(=N)N)NC(=O)[C@H](CCC(N)=O)NC(=O)[C@@H](NC(=O)[C@H](C)NC(=O)[C@@H]1CSSC[C@H](NC(=O)[C@@H](N)CCCCNC(=O)COCCOCCNC(=O)CC[C@H](NC(=O)CCCCCCCCCCCCCCCCCCC(=O)O)C(=O)O)C(=O)N[C@@H](CC(N)=O)C(=O)N[C@@H]([C@@H](C)O)C(=O)N[C@@H](C)C(=O)N[C@@H]([C@@H](C)O)C(=O)N1)[C@@H](C)O)C(=O)N1CCC[C@H]1C(=O)N[C@@H](CO)C(=O)N[C@@H](CO)C(=O)N[C@H](C(=O)N[C@@H](CC(N)=O)C(=O)N[C@H](C(=O)NCC(=O)N1CCC[C@H]1C(=O)N[C@@H](CC(N)=O)C(=O)N[C@H](C(=O)N[C@@H](Cc1ccc(O)cc1)C(N)=O)[C@@H](C)O)C(C)C)[C@@H](C)O, also called compound 68) | 64.4 | 5.66 |
| K([AEEA-γGlu-C20 diacid])CNTATCATQRLAKFLRHSSPNFGAIPSSTPVGSNTY-NH2 (disulfide 2-7; N-terminus assumed; SMILES CC[C@H](C)[C@H](NC(=O)[C@H](C)NC(=O)CNC(=O)[C@H](Cc1ccccc1)NC(=O)[C@H](CC(N)=O)NC(=O)[C@@H]1CCCN1C(=O)[C@H](CO)NC(=O)[C@H](CO)NC(=O)[C@H](Cc1c[nH]cn1)NC(=O)[C@H](CCCNC(=N)N)NC(=O)[C@H](CC(C)C)NC(=O)[C@H](Cc1ccccc1)NC(=O)[C@H](CCCCN)NC(=O)[C@H](C)NC(=O)[C@H](CC(C)C)NC(=O)[C@H](CCCNC(=N)N)NC(=O)[C@H](CCC(N)=O)NC(=O)[C@@H](NC(=O)[C@H](C)NC(=O)[C@@H]1CSSC[C@H](NC(=O)[C@@H](N)CCCCNC(=O)COCCOCCNC(=O)CC[C@H](NC(=O)CCCCCCCCCCCCCCCCCCC(=O)O)C(=O)O)C(=O)N[C@@H](CC(N)=O)C(=O)N[C@@H]([C@@H](C)O)C(=O)N[C@@H](C)C(=O)N[C@@H]([C@@H](C)O)C(=O)N1)[C@@H](C)O)C(=O)N1CCC[C@H]1C(=O)N[C@@H](CO)C(=O)N[C@@H](CO)C(=O)N[C@H](C(=O)N1CCC[C@H]1C(=O)N[C@H](C(=O)NCC(=O)N[C@@H](CO)C(=O)N[C@@H](CC(N)=O)C(=O)N[C@H](C(=O)N[C@@H](Cc1ccc(O)cc1)C(N)=O)[C@@H](C)O)C(C)C)[C@@H](C)O, also called compound 74) | 101 | 79.9 |
